# Assay results as given in the RNAGym collection of RNA variant scans (doi:10.7554/elife.80360).
# B1: Hairpin Ribozyme (parent)
# chain: GUCCUCUUUCACGUGCGCGUGAAAGAGAGAAGUGAACCAGAGAAACACACGUUGUGGUAUAUUACCUGGUA
# Variants of: B1
# Test: self-cleavage, relative activity (ratio to wild type); higher = more cleavage; co-transcriptional
row,Variant,self-cleavage
1,U33A A49C,0.163
2,A31G A43U,0.11
3,U33G C48A,0.158
4,U33G U60C,0.195
5,U33A U58C,0.0877
6,U33A A39C,0.105
7,A31U G32C,0.165
8,A31U G32A,0.102
9,G32U U63A,0.172
10,G34A A36C,0.956
11,G34A A41G,1.3
12,U33C A71U,0.144
13,G32A G57A,0.0905
14,U33A G57U,0.13
15,U33C U55C,0.173
16,G32A A39C,0.0881
17,G32A A39G,0.107
18,G34A A71G,1.41
19,A31G G68A,0.189
20,A31G G68C,0.115
21,U33A G40U,0.126
22,U33A G40A,0.108
23,G34A G42C,0.516
24,G34A G42A,0.356

row,Variant,self-cleavage
1,G32U U52C,0.144
2,A31G C66G,0.211
3,A31G C66A,0.127
4,G32C A49C,0.0996
5,G32A G51C,0.113
6,G32A G51U,0.122
7,A31U U58G,0.18
8,G32U A35G,0.0968
9,G32U A35U,0.191
10,A31G G42C,0.278
11,U33C G57C,0.0819
12,G32U U62G,0.182
13,A31U A39C,0.0658
14,A31U A39U,0.12
15,G34A A61C,0.336
16,G34A C46G,0.159
17,G32U A43U,0.148
18,U33C U52C,0.177
19,U33C U58A,0.0907
20,U33C U58G,0.0694
21,A31U A61G,0.159
22,U33G A41U,0.251
23,U33G A41C,0.156
24,G32C C48A,0.112

row,Variant,self-cleavage
1,G32C C48G,0.121
2,G32A A43U,0.0753
3,A31G U70C,0.751
4,A31G U70G,0.376
5,U33A C38G,0.128
6,U33A C38A,0.13
7,A31U U53C,0.133
8,G34A A44G,0.259
9,G34A A44C,0.223
10,A31G A41C,1.2
11,A31G G51A,0.927
12,A31U G68C,0.175
13,G32C U62A,0.234
14,G32C U62G,0.0745
15,A31U A43U,0.0597
16,G32C A61U,0.0498
17,U33A U67G,0.169
18,U33G U52G,0.0362
19,G32U A61U,0.109
20,G32U U33C,0.222
21,G32U U33A,0.148
22,U33C C37G,0.0717
23,G32U G34C,0.18
24,U33G A49U,0.218

row,Variant,self-cleavage
1,U33G G69C,0.038
2,U33G A45U,0.0465
3,G32A A35C,0.177
4,G32C U63C,0.0888
5,G32C U63G,0.035
6,G32C U63A,0.208
7,G32C C65U,0.0495
8,G32C A45U,0.121
9,G34A A64C,0.349
10,A31U A47C,0.109
11,A31U U52G,0.117
12,A31U U52A,0.048
13,A31U U52C,0.116
14,A31U U70C,0.0555
15,A31U U70G,0.27
16,A31U C37A,0.0463
17,U33A C50G,0.211
18,A31U U55C,0.0975
19,G32U G51U,0.119
20,G32U G51A,0.179
21,G32C A43U,0.127
22,G32C A43C,0.23
23,G32C A43G,0.0421
24,U33C C66G,0.112

row,Variant,self-cleavage
1,A31G G32U,0.121
2,U33A G34U,0.134
3,U33G C38U,0.204
4,U33G C38G,0.128
5,U33G C38A,0.139
6,G32A C46A,0.145
7,A31U U63C,0.247
8,U33C G34U,0.348
9,G32C A35G,0.146
10,U33C G54A,0.0427
11,U33C G54C,0.163
12,U33C G54U,0.141
13,G32A A41G,0.183
14,G32A A41C,0.145
15,A31G C65A,0.891
16,A31G C65G,0.17
17,G32U A44C,0.112
18,G32U A44U,0.243
19,U33G C65U,0.0212
20,U33G C65A,0.189
21,A31U U33C,0.0766
22,A31U U33G,0.143
23,G32C U55A,0.176
24,G32C U55G,0.0931

row,Variant,self-cleavage
1,A31U G69C,0.111
2,G32A G56C,0.0365
3,G32C U52C,0.131
4,A31U G56U,0.187
5,A31U G56A,0.0543
6,G34A,1.21
7,G34A C66U,0.609
8,G34A C66G,0.184
9,U33C C38G,0.123
10,U33C C46U,0.0782
11,U33C C46G,0.187
12,A31U G51U,0.121
13,G32A G42A,0.0757
14,G32A G42C,0.124
15,U33C G42U,0.115
16,U33C G42C,0.0894
17,G32A U62A,0.162
18,G32A U62C,0.128
19,G32A G54A,0.156
20,G32A G54U,0.136
21,G32C C37U,0.131
22,A31U C48G,0.0916
23,A31U C48U,0.109
24,U33C A39C,0.171

row,Variant,self-cleavage
1,A31U G40U,0.182
2,A31U G40C,0.154
3,U33C U70A,0.0822
4,G32U A41G,0.0256
5,A31G A45G,0.0922
6,G32A A36C,0.145
7,G32A A36G,0.0788
8,G32A A36U,0.111
9,U33A A41C,0.0532
10,U33A A41G,0.0913
11,G32A G34C,1.23
12,G32C A47U,0.0919
13,G32C A47G,0.0562
14,A31G C38A,0.157
15,G32C C38G,0.0953
16,G32C C38U,0.181
17,G32A U33G,0.137
18,U33A A43C,0.219
19,U33A A43U,0.115
20,A31U C46G,0.212
21,U33A U60A,0.0246
22,A31G G34C,1.44
23,A31G G34U,1.54
24,G34A C37G,0.519

row,Variant,self-cleavage
1,G32A U55A,0.107
2,G32A A64G,0.142
3,G32A A45C,0.277
4,G32A A45U,0.143
5,G32C U70C,0.234
6,G34A C50A,0.312
7,U33C G40C,0.0896
8,G32U U55A,0.0859
9,G32U G42A,0.153
10,G32U G56A,0.117
11,G32A C38A,0.115
12,U33G G68C,0.0688
13,G32U U58G,0.137
14,G32U C38G,0.125
15,G32U C38U,0.0994
16,G32C U58A,0.116
17,U33A A36G,0.202
18,G34A A43C,0.229
19,U33C U60C,0.128
20,A31U U62A,0.115
21,U33C U62G,0.0931
22,U33C U62C,0.0427
23,U33C U62A,0.278
24,A31U A41G,0.0486

row,Variant,self-cleavage
1,A31U G34A,0.0803
2,G32C C66G,0.114
3,U33A A47U,0.127
4,U33A A47G,0.0897
5,G32A U52C,0.101
6,U33A U62G,0.174
7,U33A U62A,0.148
8,G34A C65A,1.26
9,G32A C48G,0.117
10,A31U G42A,0.0839
11,G34A C38A,0.267
12,G34A C38G,0.195
13,A31G U62G,0.199
14,G32A U70A,0.139
15,A31G C48U,0.257
16,A31G C48G,0.1
17,G32C G40A,0.164
18,U33G A44U,0.23
19,U33G A44C,0.0874
20,U33G A44G,0.0996
21,G32C G57C,0.113
22,U33G A47U,0.105
23,U33G A47G,0.0744
24,A31U U67G,0.0559

row,Variant,self-cleavage
1,A31U U67A,0.1
2,U33A A61C,0.127
3,G32A C50G,0.179
4,G32A C50A,0.168
5,A31U A36U,0.121
6,U33G A64C,0.0723
7,U33A C66G,0.101
8,G32A U63C,0.0959
9,U33G U62C,0.0629
10,U33G A35U,0.16
11,U33G A35C,0.333
12,G32A C37U,0.129
13,G32A C37A,0.115
14,U33C A64U,0.154
15,G32C C50G,0.14
16,G32C C50A,0.109
17,G32U U67G,0.121
18,G32U U67A,0.171
19,U33A A64U,0.21
20,U33A A64C,0.143
21,G32U G40U,0.152
22,G32U G40C,0.0975
23,U33G C66A,0.0596
24,U33G C66G,0.0993

row,Variant,self-cleavage
1,U33A U53C,0.264
2,U33A U53G,0.0866
3,U33A U53A,0.103
4,U33A A35U,0.131
5,U33A A35G,0.17
6,U33G A36C,0.0918
7,G32U A47U,0.121
8,G32U A47G,0.0761
9,G32C U53C,0.155
10,U33G U63A,0.126
11,U33G U63C,0.217
12,U33C A59U,0.128
13,U33C A59C,0.198
14,U33C A59G,0.083
15,A31G U63G,0.135
16,G32C A39U,0.174
17,G32U C66U,0.194
18,G32U U53C,0.253
19,G32U U53G,0.103
20,G32C G34U,0.163
21,G32U A71G,0.214
22,G32U A71C,0.206
23,U33C A41C,0.114
24,A31G U58C,0.793

row,Variant,self-cleavage
1,A31G U58A,0.323
2,A31G U58G,0.404
3,U33C U63G,0.0654
4,A31U C38U,0.157
5,A31G U67A,0.0798
6,G32A G69U,0.161
7,G32U A49G,0.128
8,G32U A49C,0.0697
9,G34A A59C,0.148
10,G34A A59U,0.203
11,G34A G40C,0.174
12,G34A A45U,0.0941
13,G34A A45G,0.435
14,U33C C50G,0.0836
15,U33C C50U,0.0772
16,U33C U53G,0.299
17,G32U C48G,0.188
18,G32U A45G,0.0481
19,G32U A45U,0.3
20,U33G U70A,0.121
21,U33G G56U,0.244
22,U33G G56C,0.0919
23,G32U G69U,0.0924
24,U33A C37G,0.182

row,Variant,self-cleavage
1,U33A C37U,0.109
2,A31G A61G,0.118
3,G32A A59C,0.133
4,G32A A59G,0.189
5,G32C A44G,0.137
6,G32C C46G,0.0694
7,U33C A49C,0.148
8,U33C A49U,0.127
9,G32U A39C,0.116
10,G32U A39G,0.0986
11,A31G U60G,0.412
12,A31G U60A,0.677
13,U33A G54C,0.128
14,A31U A44G,0.215
15,G32U C46A,0.272
16,G32U C46G,0.14
17,G32A U53G,0.146
18,G32A U53C,0.243
19,A31U A64C,0.0924
20,G32C G69C,0.115
21,U33G G42A,0.0778
22,G34A A49U,0.174
23,A31U C65G,0.166
24,A31U C65U,0.121

row,Variant,self-cleavage
1,A31G U55C,0.28
2,G32C G51C,0.0912
3,G32C G51A,0.14
4,G32A C66U,0.177
5,U33G U58A,0.0636
6,G32C A59C,0.198
7,G32C U60C,0.0463
8,A31G A71C,1.05
9,U33A U55G,0.0798
10,G32A U58A,0.0567
11,G32A U58C,0.184
12,G32A U58G,0.16
13,U33G G34A,0.317
14,A31U U60C,0.103
15,A31G G56A,0.0841
16,U33G A59U,0
17,U33G A59G,0.204
18,U33C A47U,0.0811
19,G32A A71U,0.155
20,G32A A71C,0.15
21,G32C A41U,0.101
22,G32C A41C,0.0995
